Paper PMC6635489

Legend:
Conditions in all cases: glycan lost; control: wild type GluK3
[1] = whole-cell dose-response, 30 µM-30 mM glutamate
[2] = whole-cell patch clamp, 30 mM glutamate, HEK293
[3] = surface biotinylation, anti-GluR6/7 blot, HEK293
[4] = two-pulse 30 mM glutamate protocol, whole-cell patch clamp

B1: GluK3: S404A (protein)
parent chain: MTAPWRRLRSLVWEYWAGFLVCAFWIPDSRGMPHVIRIGGIFEYADGPNAQVMNAEEHAFRFSANIINRNRTLLPNTTLTYDIQRIHFHDSFEATKKACDQLALGVVAIFGPSQGSCTNAVQSICNALEVPHIQLRWKHHPLDNKDTFYVNLYPDYASLSHAILDLVQSLKWRSATVVYDDSTGLIRLQELIMAPSRYNIRLKIRQLPIDSDDSRPLLKEMKRGREFRIIFDCSHTMAAQILKQAMAMGMMTEYYHFIFTTLDLYALDLEPYRYSGVNLTGFRILNVDNAHVSAIVEKWSMERLQAAPRAESGLLDGVMMTDAALLYDAVHIVSVCYQRASQMTVNSLQCHRHKPWRFGGRFMNFIKEAQWEGLTGRIVFNKTSGLRTDFDLDIISLKEDGLEKVGVWSPADGLNITEVAKGRGPNVTDSLTNRSLIVTTLLEEPFVMFRKSDRTLYGNDRFEGYCIDLLKELAHILGFSYEIRLVEDGKYGAQDDKGQWNGMVKELIDHKADLAVAPLTITHVREKAIDFSKPFMTLGVSILYRKPNGTNPSVFSFLNPLSPDIWMYVLLAYLGVSCVLFVIARFSPYEWYDAHPCNPGSEVVENNFTLLNSFWFGMGSLMQQGSELMPKALSTRIIGGIWWFFTLIIISSYTANLAAFLTVERMESPIDSADDLAKQTKIEYGAVKDGATMTFFKKSKISTFEKMWAFMSSKPSALVKNNEEGIQRTLTADYALLMESTTIEYITQRNCNLTQIGGLIDSKGYGIGTPMGSPYRDKITIAILQLQEEDKLHIMKEKWWRGSGCPEEENKEASALGIQKIGGIFIVLAAGLVLSVLVAVGEFIYKLRKTAEREQRSFCSTVADEIRFSLTCQRRLKHKPQPPMMVKTDAVINMHTFNDRRLPGKDSMSCSTSLAPVFP
other: glutamate EC50 of channel current, EC50 [1]: no change, 10.3 vs 9.5
other: desensitization time constant, other: mean weighted tau_des [2]: no change, 4.5 ± 0.3 vs 3.8 ± 0.5
localisation_or_trafficking [3]: no change
other: time constant of recovery from desensitization, other: tau_rec [4]: decreases, 0.5 vs 0.9
